The values that follow come from article PMC11315185 (Heliyon, 2024).

This test has as its target CDC48A-ND1 (a CDC48A construct containing the N and first ATPase domains) (Arabidopsis thaliana, UniProt P54609 1-484). The test can be described thus: ITC. In general terms: ITC needs no label: the signal is the heat of the interaction.

Sequence of CDC48A-ND1 (a CDC48A construct containing the N and first ATPase domains) (P54609 1-484): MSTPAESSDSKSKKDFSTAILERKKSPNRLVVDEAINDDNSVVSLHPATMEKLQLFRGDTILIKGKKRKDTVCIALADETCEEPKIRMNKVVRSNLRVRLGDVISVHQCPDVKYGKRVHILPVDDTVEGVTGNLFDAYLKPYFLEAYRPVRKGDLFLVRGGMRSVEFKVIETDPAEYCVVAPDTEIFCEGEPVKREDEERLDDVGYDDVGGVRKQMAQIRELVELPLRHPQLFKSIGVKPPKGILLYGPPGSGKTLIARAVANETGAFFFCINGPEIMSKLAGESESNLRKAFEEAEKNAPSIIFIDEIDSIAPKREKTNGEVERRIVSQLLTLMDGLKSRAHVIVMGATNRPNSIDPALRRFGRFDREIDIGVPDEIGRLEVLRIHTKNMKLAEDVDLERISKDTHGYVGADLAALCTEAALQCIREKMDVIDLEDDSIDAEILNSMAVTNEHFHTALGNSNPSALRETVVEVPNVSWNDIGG

B1: P-NAD5_(SHP-UBX) (P-NAD5 with helix1 and the SEP domain deleted) (other)
chain: QVQLVESGGALVQPGGSLRLSCAASGFPVNRYSMRWYRQAPGKEREWVAGMSSAGDRSSYEDSVKGRFTISRDDARNTVYLQMNSLKPEDTAVYYCNVNVGFEYWGQGTQVTVSSEPPKPKNPFQGVGRTLGASGSGSSSAPQASSAPMNVAPAPSRGLVVDPAAPTTSIQLRLADGTRLVSRFNNHHTVRDVRGFIDASRPGGSKEYQLLTMGFPPKQLTELDQTIEQAGIANAVVIQKF
With B1, the Kd – broadly, the equilibrium constant for the complex coming apart – was 12.3 ± 3.7 µM and the stoichiometry N (commonly a count of units in the complex or per binding partner) is 1.

B2: Arabidopsis PUX4 (natural protein, Arabidopsis thaliana, UniProt Q8RWU7 1-303, looked up)
chain: MSSKDKKPSKPSSSRGGIRTLSDLNRRSGPDSDSDSDGPQEYYTGGEKSGMLVQDPSKKDDVDEIFNQARQLGAVEGPLEPPPSSRSFTGTGRLLSGENVPTGNQQPEPVVHNIVFWSNGFTIDDGPLRKLDDPENASFLESIRKSECPKELEPADRRAPVHVNLMRKEEKCPERQKRRVSFQGVGRTLGGSNEGSGSSSPVAPDSAPIPIQTEPAPSQSLVIDETVPTTSIQLRLADGTRLVAKFNHHHTVNDIRGFIDSSRPGASLNYQLQTMGFPPKPLTDLTQTIEEAGLANSVVLQKF
B2: the Kd worked out at 2.7 ± 0.9 µM and the “stoichiometry N” value is around 0.5.

B3: Arabidopsis PUX3 (natural protein, Arabidopsis thaliana, UniProt Q9SUG6 1-302, looked up)
chain: MSSKDKKLSKPTSGRTGGIRTLSDLNRRSEPDSDSDSDGPQEYFTGGEKSGMLVQDPTKEPKHDDVDEIFNQARQLGAVEGPLEHPSSSRSFTGTGRLLSGESVPTALQQPEPVIHNIIFWSNGFTVDDGPLRKLDDPENASFLDSIRKSECPKELEPVDKRAPVHVNLMRRDEKCPEKEKLKVSFQGVGRTLGGASSSTASSQSNLTDVAAVQSPLQSLVVDETLPSTSIQLRLADGTRMVAKFNNHHTVNDIRGFIEFSRPGNPNNYTLQVMGFPPKPLTDPSQTIEQAGLASSVVIQKF
Consider B3, for which binding was characterised by a dissociation constant (Kd) of 5.6 ± 1.6 µM and the “stoichiometry N” value was around 0.5.
